Three substances from patent publication US20200024330A1 can be followed below.

A value given as a limit tells only on which side of the number the result lay.

What is called IC50 is the concentration at which inhibition is half-maximal. The low end stands for inhibition by little substance, the high end for a need for much substance.

Holding throughout (experiment): cell-based or functional assay
For assay [1], the target named is HIV-1 Env of isolate 93TH305 (HIV-1).
Assay [2] deals with HIV-1 Env of isolate MG RM-A-011 (pseudovirus) (HIV-1).
Assay [3] has as its target HIV-1 Env of isolate MGRM-D-003 (subtype D), on pseudovirus (HIV-1).
The target of assay [4] is HIV-1 92BR020 envelope glycoprotein (Env) on pseudovirus (HIV-1).
Assay [5] concerns the target HIV-1 Env of isolate MGRM-Chronic-B-008 (HIV-1).
The target in assay [6] is HIV-1 Env of isolate APV_6 (HIV-1).
Assay [7] deals with HIV-1 Env of isolate 92UG005 (subtype D), on pseudovirus (HIV-1).
Assay [8] addresses HIV-1 Env of isolate 93UG077 (pseudovirus) (HIV-1).
Assay [9] has as its target HIV-1 Env of isolate MGRM-D-001 (subtype D), on pseudovirus (HIV-1).
The target in assay [10] is HIV-1 Env of isolate CAAN.A2 (HIV-1).
Assay [11] addresses HIV-1 Env of isolate MGRM-D-002 (subtype D), on pseudovirus (HIV-1).
In assay [12] the target is HIV-1 Env of isolate MG RM-A-005 (pseudovirus) (HIV-1).
Assay [13] has as its target HIV-1 Env of isolate 92UG024 (subtype D), on pseudovirus (HIV-1).
Assay [14] addresses HIV-1 Env of isolate MG RM-A-010 (pseudovirus) (HIV-1).
Assay [15] concerns the target HIV-1 Env of isolate MG RM-A-007 (pseudovirus) (HIV-1).
For assay [16], the target named is HIV-1 Env of isolate 92WR020 (pseudovirus) (HIV-1).
Assay [17] addresses HIV-1 Env of isolate MGRM-D-005 (subtype D), on pseudovirus (HIV-1).
Assay [18] addresses HIV-1 Env of isolate VLGCA1 (pseudovirus) (HIV-1).
The target of assay [19] is HIV-1 Env of isolate 94UG103 (pseudovirus) (HIV-1).
For assay [20], the target named is HIV-1 Env of isolate MGRM-Chronic-B-004 (HIV-1).
Assay [21] deals with HIV-1 Env of isolate 92RW009 (clade A), on pseudovirus (HIV-1).
Assay [22] addresses HIV-1 Env of isolate 92UG114 (subtype D), on pseudovirus (HIV-1).
Assay [23] concerns the target HIV-1 Env of isolate MGRM-D-008 (subtype D), on pseudovirus (HIV-1).
Assay [24] addresses HIV-1 Env of isolate 92UG031 (pseudovirus) (HIV-1).
Assay [25] concerns the target HIV-1 Env of isolate MGRM-Chronic-B-002 (HIV-1).
Assay [26] addresses HIV-1 Env of isolate 92TH021 (pseudovirus) (HIV-1).
The target in assay [27] is HIV-1 Env of isolate MG RM-A-009 (pseudovirus) (HIV-1).
Assay [28] concerns the target HIV-1 Env of isolate 92BR020 (HIV-1).
Assay [29] deals with HIV-1 Env of isolate MG RM-A-014 (pseudovirus) (HIV-1).
The target in assay [30] is HIV-1 Env of isolate MGRM-D-004 (subtype D), on pseudovirus (HIV-1).
Assay [31] addresses HIV-1 Env of isolate JRFL (HIV-1).
Assay [32] deals with HIV-1 Env of isolate 92UG001 (subtype D), on pseudovirus (HIV-1).
For assay [33], the target named is HIV-1 Env of isolate MGRM-Chronic-B-001 (HIV-1).
Assay [34] deals with HIV-1 Env of isolate APV_13 (HIV-1).
For assay [35], the target named is HIV-1 Env of isolate MGRM-AE-005 (pseudovirus) (HIV-1).
The target of assay [36] is HIV-1 Env of isolate MGRM-AE-001 (pseudovirus) (HIV-1).
The target of assay [37] is HIV-1 Env of isolate MGRM-AE-006 (pseudovirus) (HIV-1).
Assay [38] deals with HIV-1 Env of isolate 92WR021 (pseudovirus) (HIV-1).
Assay [39] has as its target HIV-1 Env of isolate MG RM-A-013 (pseudovirus) (HIV-1).
The target of assay [40] is HIV-1 Env of isolate 92UG037 (pseudovirus) (HIV-1).
For assay [41], the target named is HIV-1 Env of isolate MGRM-Chronic-B-003 (HIV-1).
The target in assay [42] is HIV-1 Env of isolate 6535.3 (HIV-1).
Assay [43] has as its target HIV-1 Env of isolate APV_17 (HIV-1).
Assay [44] addresses HIV-1 Env of isolate 92WR026 (pseudovirus) (HIV-1).
The target of assay [45] is HIV-1 Env of isolate 94 KE 105 (pseudovirus) (HIV-1).
Assay [46] has as its target HIV-1 Env of isolate MGRM-AE-004 (pseudovirus) (HIV-1).
Assay [47] has as its target HIV-1 Env of isolate CMU02 (pseudovirus) (HIV-1).
For assay [48], the target named is HIV-1 Env of isolate 93WR029 (pseudovirus) (HIV-1).
The target in assay [49] is HIV-1 Env of isolate MGRM-AE-002 (pseudovirus) (HIV-1).
The target in assay [50] is HIV-1 Env of isolate 92UG046 (subtype D), on pseudovirus (HIV-1).
The target in assay [51] is HIV-1 Env of isolate 92WR024 (pseudovirus) (HIV-1).
The target in assay [52] is HIV-1 Env of isolate MG RM-A-006 (pseudovirus) (HIV-1).
The target of assay [53] is HIV-1 Env of isolate 98CN006 (subtype CRF08 BC), on pseudovirus (HIV-1).
In assay [54] the target is HIV-1 Env of isolate 98CN009 (subtype CRF07_BC), on pseudovirus (HIV-1).
In assay [55] the target is HIV-1 Env of isolate 92RW008 (clade A), on pseudovirus (HIV-1).
Assay [56] concerns the target HIV-1 92RW020 envelope glycoprotein (Env) on pseudovirus (HIV-1).
For assay [57], the target named is HIV-1 Env of isolate MG RM-A-008 (pseudovirus) (HIV-1).
In assay [58] the target is HIV-1 Env of isolate MGRM-AE-003 (pseudovirus) (HIV-1).
Assay [59] addresses HIV-1 Env of isolate MG RM-A-012 (pseudovirus) (HIV-1).
For assay [60], the target named is HIV-1 92UG005 envelope glycoprotein (Env) on pseudovirus (HIV-1).
Assay [61] concerns the target aMLV envelope protein on pseudovirus (negative control virus).
Assay [62] has as its target HIV-1 CMU02 envelope glycoprotein (Env) on pseudovirus (HIV-1).
Assay [63] has as its target HIV-1 92UG024 envelope glycoprotein (Env) on pseudovirus (HIV-1).
Assay [64] has as its target HIV-1 92TH021 envelope glycoprotein (Env) on pseudovirus (HIV-1).
Assay [65] addresses HIV-1 MGRM-D-001 envelope glycoprotein (Env) on pseudovirus (HIV-1).
In assay [66] the target is HIV-1 MGRM-AG-005 envelope glycoprotein (Env) on pseudovirus (HIV-1).
Assay [67] addresses HIV-1 MGRM-D-018 envelope glycoprotein (Env) on pseudovirus (HIV-1).

4995_E20 (PGT-142) (antibody), sequence (VH): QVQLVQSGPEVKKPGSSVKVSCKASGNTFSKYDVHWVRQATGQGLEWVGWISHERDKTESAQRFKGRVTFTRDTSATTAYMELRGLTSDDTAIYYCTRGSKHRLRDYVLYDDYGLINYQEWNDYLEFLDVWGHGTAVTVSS
4995_E20 (PGT-142) (antibody), sequence (VL): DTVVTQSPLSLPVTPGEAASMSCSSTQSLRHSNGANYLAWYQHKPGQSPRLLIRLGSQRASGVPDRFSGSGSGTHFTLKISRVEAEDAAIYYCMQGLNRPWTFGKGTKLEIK

In the case of 4995_E20 (PGT-142) (antibody), the IC50 in [1] is 5.86 µg/mL; in assay [5] it was above 50 µg/mL; in [6], 4.72 µg/mL; in [10], above 50 µg/mL; in [20], 0.172 µg/mL; in assay [25], above 50 µg/mL. The IC50 in assay [28] is 15.1 µg/mL; in [31] it was above 50 µg/mL; in assay [33], above 50 µg/mL; in assay [34] it was above 50 µg/mL; in assay [41] it was 0.484 µg/mL; in assay [42], above 50 µg/mL. The substance further yielded an IC50 in assay [43] of 0.628 µg/mL. In addition, the IC50 (µg/mL), pseudovirus neutralization in [2] is above 50 µg/mL; in [8], above 50 µg/mL; in [12] it was 9.7 µg/mL; in assay [14] it was 0.015 µg/mL; in assay [15], above 50 µg/mL; in assay [16], 31.5 µg/mL. For the same substance, the IC50 (µg/mL), pseudovirus neutralization is 2.75 µg/mL in [18]; above 50 µg/mL in assay [19]; 0.05 µg/mL in assay [24]; 0.002 µg/mL in assay [26]; 0.058 µg/mL in [27]; 0.367 µg/mL in [29]. Moreover, the IC50 (µg/mL), pseudovirus neutralization in assay [35] was above 50 µg/mL; in [36], above 50 µg/mL; in [37], above 50 µg/mL; in assay [38], above 50 µg/mL; in assay [39], 3.77 µg/mL; in [40] it was 0.557 µg/mL. For the same substance, the IC50 (µg/mL), pseudovirus neutralization in [44] is 1.78 µg/mL; in [45], 0.19 µg/mL; in assay [46] it was 0.001 µg/mL; in [47] it was above 50 µg/mL; in [48] it was 0.014 µg/mL; in assay [49], above 50 µg/mL. For the same substance, the IC50 (µg/mL), pseudovirus neutralization in assay [51] was 0.069 µg/mL; in assay [52], above 50 µg/mL; in assay [57] it was above 50 µg/mL; in assay [58] it was above 50 µg/mL; in assay [59], above 50 µg/mL. The IC50, pseudovirus neutralization in assay [3] was above 50 µg/mL; in assay [7], above 50 µg/mL; in assay [9], above 50 µg/mL; in [11] it was above 50 µg/mL; in [13], above 50 µg/mL; in assay [17], 1.15 µg/mL. The IC50, pseudovirus neutralization in assay [22] is above 50 µg/mL; in assay [23] it was 0.174 µg/mL; in assay [30], above 50 µg/mL; in assay [32] it was above 50 µg/mL; in [50], above 50 µg/mL; in assay [53], above 50 µg/mL. The IC50, pseudovirus neutralization in assay [54] turned out to be 4 µg/mL. The IC50 (ug/ml), neutralizing activity in [4] and in assay [56] was above 10 µg/mL throughout. Moreover, the results for the IC50, single-round pseudovirus neutralization in [21] and in assay [55] were 0.006 µg/mL and 0.447 µg/mL, respectively.

For the substance PGT-121 monoclonal antibody, the IC50, pseudovirus neutralization in [60], in [61], in assay [62], in assay [63] and in assay [64] was above 10 µg/mL in each case.

As to PGT-122 monoclonal antibody, the IC50, pseudovirus neutralization was above 10 µg/mL in assay [60]; above 10 µg/mL in assay [61]; 0.867 µg/mL in [65]; above 10 µg/mL in assay [62]; above 10 µg/mL in assay [63]; above 10 µg/mL in assay [66]. The IC50, pseudovirus neutralization in assay [64] is above 10 µg/mL; in [67], 0.0115 µg/mL.
